Test results published in US20260078197A1.

Molecular target: Macaca fascicularis (crab-eating macaque) TFR1 expressed on CHO-S cells (Macaca fascicularis (crab-eating macaque))
Test: flow cytometry on CHO-S-fasTFR1 cells; anti-hIgG-Fc Alexa Fluor 647 secondary

Sequence of Macaca fascicularis (crab-eating macaque) TFR1 expressed on CHO-S cells (Macaca fascicularis (crab-eating macaque)) (chain, as listed by the source limits assumed): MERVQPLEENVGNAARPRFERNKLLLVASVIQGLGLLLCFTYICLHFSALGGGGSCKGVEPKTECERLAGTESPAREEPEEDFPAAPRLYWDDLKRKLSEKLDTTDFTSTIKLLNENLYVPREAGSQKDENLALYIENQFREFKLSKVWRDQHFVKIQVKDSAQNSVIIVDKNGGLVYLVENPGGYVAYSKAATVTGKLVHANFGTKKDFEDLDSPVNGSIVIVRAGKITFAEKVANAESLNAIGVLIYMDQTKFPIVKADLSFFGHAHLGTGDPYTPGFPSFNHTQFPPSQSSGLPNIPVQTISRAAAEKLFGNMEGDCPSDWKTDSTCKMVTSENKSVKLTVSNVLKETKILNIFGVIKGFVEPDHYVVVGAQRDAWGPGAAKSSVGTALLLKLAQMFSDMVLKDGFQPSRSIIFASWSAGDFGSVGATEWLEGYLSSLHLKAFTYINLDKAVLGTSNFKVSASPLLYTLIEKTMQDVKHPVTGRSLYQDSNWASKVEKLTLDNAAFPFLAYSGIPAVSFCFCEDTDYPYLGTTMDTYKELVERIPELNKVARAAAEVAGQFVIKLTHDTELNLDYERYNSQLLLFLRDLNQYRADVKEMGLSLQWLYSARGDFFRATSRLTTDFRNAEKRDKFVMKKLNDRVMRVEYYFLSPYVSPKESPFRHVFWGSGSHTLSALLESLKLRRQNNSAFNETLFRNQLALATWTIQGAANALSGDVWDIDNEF

Percentage of Positive Cells: 0.35%
B1: 24C9 (antibody, human IgG1, V domains shown)
VH: EVQLVQSGGGVVQPGRSLRLSCAASGFTLSSYGMYWVRQAPGKGREWVAFIRFDESKKYYADSVKGRFTISRDNSKNTLYLQMNSLRAEDTAVYYCARDGEGGYCTNGVCHGLDVWGQGTTVTVSS
